Test results from PMC12416549 (2024).

T1: TNFR1 (Homo sapiens, UniProt P19438)
T1 chain: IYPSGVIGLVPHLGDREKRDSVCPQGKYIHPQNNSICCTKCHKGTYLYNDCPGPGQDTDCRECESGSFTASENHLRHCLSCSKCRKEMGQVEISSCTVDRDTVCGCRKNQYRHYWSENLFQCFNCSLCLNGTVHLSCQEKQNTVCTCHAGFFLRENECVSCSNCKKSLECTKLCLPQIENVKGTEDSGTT

B1: A63F (designed binder)
chain: SMEEEVEKAAKEYEKKKKEAIEKHLEKLKAKDKEAAERFLKELEEAAKEYAKDEAKTMSEEEFKRRAKKYKEKVLLSELSEEEQKEIKEAEEKLVRTILKYVEEAAK
B2: L94A (designed binder)
chain: SMEEEVEKAAKEYEKKKKEAIEKHLEKLKAKDKEAAERFLKELEEAAKEYAKDEAKTMSEEEAKRRAKKYKEKVLLSELSEEEQKEIKEAEEKAVRTILKYVEEAAK
B3: E42M (designed binder)
chain: SMEEEVEKAAKEYEKKKKEAIEKHLEKLKAKDKEAAERFLKMLEEAAKEYAKDEAKTMSEEEAKRRAKKYKEKVLLSELSEEEQKEIKEAEEKLVRTILKYVEEAAK
B4: E19D (designed binder)
chain: SMEEEVEKAAKEYEKKKKDAIEKHLEKLKAKDKEAAERFLKELEEAAKEYAKDEAKTMSEEEAKRRAKKYKEKVLLSELSEEEQKEIKEAEEKLVRTILKYVEEAAK
B5: S59C (designed binder)
chain: SMEEEVEKAAKEYEKKKKEAIEKHLEKLKAKDKEAAERFLKELEEAAKEYAKDEAKTMCEEEAKRRAKKYKEKVLLSELSEEEQKEIKEAEEKLVRTILKYVEEAAK
B6: A105Y (designed binder)
chain: SMEEEVEKAAKEYEKKKKEAIEKHLEKLKAKDKEAAERFLKELEEAAKEYAKDEAKTMSEEEAKRRAKKYKEKVLLSELSEEEQKEIKEAEEKLVRTILKYVEEYAK
B7: K33D (designed binder)
chain: SMEEEVEKAAKEYEKKKKEAIEKHLEKLKAKDDEAAERFLKELEEAAKEYAKDEAKTMSEEEAKRRAKKYKEKVLLSELSEEEQKEIKEAEEKLVRTILKYVEEAAK
B8: T57Q (designed binder)
chain: SMEEEVEKAAKEYEKKKKEAIEKHLEKLKAKDKEAAERFLKELEEAAKEYAKDEAKQMSEEEAKRRAKKYKEKVLLSELSEEEQKEIKEAEEKLVRTILKYVEEAAK
B9: E49Q (designed binder)
chain: SMEEEVEKAAKEYEKKKKEAIEKHLEKLKAKDKEAAERFLKELEEAAKQYAKDEAKTMSEEEAKRRAKKYKEKVLLSELSEEEQKEIKEAEEKLVRTILKYVEEAAK
B10: K27C (designed binder)
chain: SMEEEVEKAAKEYEKKKKEAIEKHLECLKAKDKEAAERFLKELEEAAKEYAKDEAKTMSEEEAKRRAKKYKEKVLLSELSEEEQKEIKEAEEKLVRTILKYVEEAAK
B11: L25R (designed binder)
chain: SMEEEVEKAAKEYEKKKKEAIEKHREKLKAKDKEAAERFLKELEEAAKEYAKDEAKTMSEEEAKRRAKKYKEKVLLSELSEEEQKEIKEAEEKLVRTILKYVEEAAK
B12: K18W (designed binder)
chain: SMEEEVEKAAKEYEKKKWEAIEKHLEKLKAKDKEAAERFLKELEEAAKEYAKDEAKTMSEEEAKRRAKKYKEKVLLSELSEEEQKEIKEAEEKLVRTILKYVEEAAK
B13: E44H (designed binder)
chain: SMEEEVEKAAKEYEKKKKEAIEKHLEKLKAKDKEAAERFLKELHEAAKEYAKDEAKTMSEEEAKRRAKKYKEKVLLSELSEEEQKEIKEAEEKLVRTILKYVEEAAK

Target: T1, TNFR1
Test: yeast display SC50

Going from B1 to B2, the “apparent Kd (screen)” value falls from 10.4 nM to 0.49 nM (21-fold).

Going from B3 to B4, the “apparent Kd (screen)” value falls from 12.5 nM to 0.446 nM (28-fold).

B5 and B6 are the same in “apparent Kd (screen)” value: 2.73 nM for the first, 2.73 nM for the second.

First: B7
Second: B8
The “apparent Kd (screen)” value of the first is 2.4-fold higher: 1.05 nM for the first, 0.446 nM for the second.

First: B9
Second: B10
The “apparent Kd (screen)” value of the first is 5.1-fold higher: 3 nM for the first, 0.593 nM for the second.

Going from B11 to B12, the “apparent Kd (screen)” value falls from 1.69 nM to 0.79 nM (2.1-fold).

With B13 the “apparent Kd (screen)” value was 3 nM.
